Experimental findings from patent US20100197575A1, “SOLUBLE INTERLEUKIN-20 RECEPTOR” (ZymoGenetics, Inc., published 2010) are described below.

The target in experiment [1] is IL-20RA/IL-20RB heterodimeric receptor (human).
Experiment [2] shares this target. The source holds these as a separate data set.
Experiment [3] has the same target. The source holds these as a separate data set.
Experiment [4] shares this target. The source holds these as a separate data set.
Experiment [5] has the same target. This is another data set of the same source.
Another experiment has as its target T1, 125I-labeled IL-20 (Homo sapiens (Human), UniProt Q9NYY1, 125I-labeled).
T1 sequence: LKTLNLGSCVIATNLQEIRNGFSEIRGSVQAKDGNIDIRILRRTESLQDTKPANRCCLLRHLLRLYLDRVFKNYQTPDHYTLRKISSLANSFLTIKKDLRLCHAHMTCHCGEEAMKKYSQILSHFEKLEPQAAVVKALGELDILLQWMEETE
The experiment can be described thus: radiolabeled ligand binding to BHK cells stably transfected with IL-20RA and IL-20RB. How it is done:
The specificity and affinity of IL-20 for its receptor was determined using BHK cells stably transfected with IL-20RA, IL-20RB or both receptor subunits. […] Binding of ¹²⁵I-labeled IL-20 was eliminated in the presence of 100-fold excess of unlabeled IL-20 but not with 100-fold excess of the unrelated cytokine, IL-21.

For “Interleukin-20 (IL-20) (from UniProt Q9NYY1) (ligand)”, in experiment [1], the half-maximal IL-20 concentration, STAT3 nuclear translocation in HaCaT cells turned out to be 7 nM. Moreover, the half-maximal response, STAT-luciferase in BHK cells transfected with both receptor subunits in experiment [2] came out at 5.7 pM. In experiment [3], this molecule returned a half maximal response, proliferation of BaF3 cells co-transfected with IL-20RA and IL-20RB of 3.4 pM; a proliferation of BaF3 cells co-transfected with IL-20RA and IL-20RB of 1.1 pM. The half-maximal response, luciferase reporter in HaCaT cells, IL-20 in combination with a submaximal dose of IL-1beta in experiment [4] turned out to be 0.5 nM. The half maximal response, SRE/STAT luciferase reporter in HaCaT cells in experiment [5] stood at 2.3 nM.

B1: IL-20RA/IL-20RB heterodimeric receptor (receptor)
chain 1: VPCVSGGLPKPANITFLSINMKNVLQWTPPEGLQGVKVTYTVQYFIYGQKKWLNKSECRNINRTYCDLSAETSDYEHQYYAKVKAIWGTKCSKWAESGRFYPFLETQIGPPEVALTTDEKSISVVLTAPEKWKRNPEDLPVSMQQIYSNLKYNVSVLNTKSNRTWSQCVTNHTLVLTWLEPNTLYCVHVESFVPGPPRRAQPSEKQCARTLKDQSSEFKAKIIFWYVLPISITVFLFSVMGYSIYRYIHVGKEKHPANLILIYGNEFDKRFFVPAEKIVINFITLNISDDSKISHQDMSLLGKSSDVSSLNDPQPSGNLRPPQEEEEVKHLGYASHLMEIFCDSEENTEGTSFTQQESLSRTIPPDKTVIEYEYDVRTTDICAGPEEQELSLQEEVSTQGTLLESQAALAVLGPQTLQYSYTPQLQDLDPLAQEHTDSEEGPEEEPSTTLVDWDPQTGRLCIPSLSSFDQDSEGCEPSEGDGLGEEGLLSRLYEEPAPDRPPGENETYLMQFMEEWGLYVQMEN
chain 2: DEVAILPAPQNLSVLSTNMKHLLMWSPVIAPGETVYYSVEYQGEYESLYTSHIWIPSSWCSLTEGPECDVTDDITATVPYNLRVRATLGSQTSAWSILKHPFNRNSTILTRPGMEITKDGFHLVIELEDLGPQFEFLVAYWRREPGAEEHVKMVRSGGIPVHLETMEPGAAYCVKAQTFVKAIGRYSAFSQTECVEVQGEAIPLVLALFAFVGFMLILVVVPLFVWKMGRLLQYSCCPVVVLPDTLKITNSPQKLISCRREEVDACATAVMSPEELLRAWIS
The Kd is the equilibrium constant for the complex coming apart. B1 returned a Kd in the experiment with 125I-labeled IL-20 of approximately 1.5 nM.
